Measurements from patent US20250326860A1 (ADAGENE PTE, published 2025).
Where a chain is given by its changes, count along the chain named. Numbers in names are those of the source.

Key:
[1] = target: T1, human CD3 on cells (Jurkat cells, human T cells) (human, UniProt P07766 23-207); test: cell-based or functional assay
[2] = target: T1, human CD3 on cells (Jurkat cells, human …); test: flow cytometry on Jurkat cells, anti-human IgG AF647 secondary antibody
Protocol: The ability of the parental huOKT3 anti-CD3 antibody TAC2245 and the activatable huOKT3 anti-CD3 antibody TY23104 to bind Jurkat cells was measured in a dose-dependent binding assay.
The Jurkat cells were thawed, washed and cultured in an incubator. 4×10⁵ Jurkat cells/well were aliquoted into 96-well plate and incubated with parental huOKT3 TAC2245 or activatable huOKT3 for 1 hour at 4° C. After centrifugation and washing, Jurkat cells were further incubated with the secondary antibody anti-human IgG AF647 for 30 minutes at 4° C. After centrifugation and washing, the Jurkat cells labelled with antibodies were re-suspended in 2% FBS DPBS and analyzed by FACS.

[3] = target: T1, human CD3 on cells (Jurkat cells, human …); test: flow cytometry, human CD3+ T cells
Source text: (§1) Human PBMCs were freshly isolated from the blood of healthy donors by density gradient centrifugation using Histopaque-1077 (Sigma). Human CD3+ T cells were further isolated from PBMCs using the Human T Cell Enrichment Kit (Stem Cell Technologies). Monkey PBMCs were isolated from a naïve cynomolgus monkey by density gradient centrifugation using Histopaque-1077 (Sigma). Monkey CD3+ T cells were isolated from PBMCs using the Pan T Cell Isolation Kit Non-Human Primate (Miltenyi Biotec). Purified human or monkey CD3+ T cells were stained with the testing antibodies as the primary antibody and the APC-labelled anti-human-Fc antibody (BioLegend) as the secondary antibody. After washing, the cells were analyzed on the CytoFLEX flow cytometer (Beckman Coulter) and the data was analyzed by FlowJo software.

[4] = target: T2, cynomolgus monkey CD3 on T cells (cynomolgus monkey, UniProt Q95LI5 22-198); test: flow cytometry, monkey CD3+ T cells
T2 construct: whole, on cells
Source text: as §1

[5] = target: T3, human CD20 on cells (human B cells; Raji, SU-DHL-8, SU-DHL-4, A3KAW, NAMALWA) (human, UniProt P11836 1-297); test: flow cytometry, Raji cells
T3 construct: whole, on cells
T3 sequence (looked up): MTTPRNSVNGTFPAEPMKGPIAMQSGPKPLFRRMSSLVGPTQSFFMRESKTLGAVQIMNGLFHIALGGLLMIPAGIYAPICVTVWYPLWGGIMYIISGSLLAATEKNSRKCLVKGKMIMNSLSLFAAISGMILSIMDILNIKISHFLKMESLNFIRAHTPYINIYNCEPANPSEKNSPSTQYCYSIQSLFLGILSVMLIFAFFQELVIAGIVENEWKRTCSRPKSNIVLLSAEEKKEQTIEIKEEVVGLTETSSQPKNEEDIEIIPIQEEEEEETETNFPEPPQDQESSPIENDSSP
Protocol: (§2) Raji, SU-DHL-8, SU-DHL-4, A3KAW and NAMALWA were B-cell lymphoma cell lines with various CD20 expression levels on cell surface. Briefly, the test antibodies were serial diluted and were incubated with the tumor cells on ice. After washing, the cells were subsequently incubated with the APC-labelled anti-human-Fc secondary antibody (BioLegend) on ice. The cells were then washed with PBS prior to analysis by the CytoFLEX flow cytometer (Beckman Coulter). The data was analyzed by FlowJo software.

[6] = target: T3, human CD20 on cells (human B cells; …); test: flow cytometry, A3KAW cells
Protocol: as §2

[7] = target: T3, human CD20 on cells (human B cells; …); test: flow cytometry, human B cells
Source text: (§3) Human and monkey PBMCs were isolated as mentioned above. Human B cells were further isolated from PBMCs using the EasySep™ Human B Cell Isolation Kit (Stem Cell Technologies). Monkey B cells were isolated from PBMCs using the Non-Human B Primate Cell Isolation Kit (Stem Cell Technologies). Purified human or monkey B cells were stained with the testing antibodies as the primary antibody and the APC-labelled anti-human-Fc antibody (BioLegend) as the secondary antibody. After washing, the cells were analyzed on the CytoFLEX flow cytometer (Beckman Coulter) and the data was analyzed by FlowJo software.

[8] = target: T3, human CD20 on cells (human B cells; …); test: flow cytometry, NAMALWA cells
Protocol: as §2

[9] = target: T4, cynomolgus monkey CD20 on B cells (cynomolgus monkey, UniProt M4ZHZ6 1-297); test: flow cytometry, monkey B cells
T4 construct: whole, on cells
T4 sequence: T3 sequence (looked up) with S25P, F31L, T51A, A157V, K217R, N226S, I227V, T239V
Source text: as §3

[10] = target: T3, human CD20 on cells (human B cells; …); test: flow cytometry, SU-DHL-4 cells
Protocol: as §2

[11] = target: T3, human CD20 on cells (human B cells; …); test: flow cytometry, SU-DHL-8 cells
Protocol: as §2

[12] = target: T1, human CD3 on cells (Jurkat cells, human …); test: Jurkat cell binding

T1 sequence (P07766 23-207): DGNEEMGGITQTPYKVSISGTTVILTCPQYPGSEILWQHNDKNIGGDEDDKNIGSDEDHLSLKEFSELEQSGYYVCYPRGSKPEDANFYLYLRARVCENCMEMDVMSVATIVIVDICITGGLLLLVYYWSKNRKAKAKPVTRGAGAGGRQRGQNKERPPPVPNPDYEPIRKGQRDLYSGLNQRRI
T2 sequence (Q95LI5 22-198): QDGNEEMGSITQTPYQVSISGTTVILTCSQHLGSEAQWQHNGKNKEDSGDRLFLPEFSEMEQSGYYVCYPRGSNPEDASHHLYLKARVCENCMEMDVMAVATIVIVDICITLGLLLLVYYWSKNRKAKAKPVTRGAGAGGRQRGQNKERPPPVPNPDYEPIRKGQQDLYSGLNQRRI

B1: TY23118 (antibody)
light: EVGSYDADDPDCPADNNHCHYSGRSAGGGGTPLGLAGSGGSQAVVTQEPSLTVSPGGTVTLTCGSSTGAVTTSNYANWVQQKPGQAPRGLIGGTNKRAPGVPARFSGSLLGGKAALTLSGAQPEDEAEYYCALWYSNLWVFGGGTKLTVLRTVAAPSVFIFPPSDEQLKSGTASVVCLLNNFYPREAKVQWKVDNALQSGNSQESVTEQDSKDSTYSLSSTLTLSKADYEKHKVYACEVTHQGLSSPVTKSFNRGEC
heavy: not shown
With B1 the “Jurkat NFAT reporter assay EC50” value [1] was 7.9 nM and the “Masking efficiency (Jurkat NFAT reporter assay)” value (shortened to “Masking efficiency”) [1] was 419 fold.

B2: TY23110 (antibody)
light: B1 light with D6A, A7P, D8H, N16P, N17P, H18S, H20Y, Y21P
heavy: not shown
With B2 the “Jurkat NFAT reporter assay EC50” value [1] was 3.6 nM and the “Masking efficiency” value [1] was 191 fold.

B3: TY23115 (antibody)
light: B1 light with D6P, A7Y, A14S, D15H, N16D, N17S, H18D, H20D, Y21N
heavy: not shown
For B3, the “Jurkat NFAT reporter assay EC50” value [1] was 7.7 nM and the “Masking efficiency” value [1] was 409 fold.

B4: TAC2245 (antibody, V domains shown)
VH: QVQLVQSGGGVVQPGRSLRLSCKASGYTFTRYTMHWVRQAPGKGLEWIGYINPSRGYTNYNQKVKDRFTISRDNSKNTAFLQMDSLRPEDTGVYFCARYYDDHYSLDYWGQGTPVTVSS
VL: DIQMTQSPSSLSASVGDRVTITCSASSSVSYMNWYQQTPGKAPKRWIYDTSKLASGVPSRFSGSGSGTDYTFTISSLQPEDIATYYCQQWSSNPFTFGQGTKLQIT
notes: also called huOKT3-C114S-gLC; parental huOKT3 anti-CD3 antibody
For B4, the “EC50 (read off the curve)” value [2] was ~0.3 nM.

B5: TY23104 (antibody, human IgG4 S228P, kappa)
light: EVGSYAYHDDDCPDDDYDCASSGRSAGGGGTPLGLAGSGGSDIQMTQSPSSLSASVGDRVTITCSASSSVSYMNWYQQTPGKAPKRWIYDTSKLASGVPSRFSGSGSGTDYTFTISSLQPEDIATYYCQQWSSNPFTFGQGTKLQITRTVAAPSVFIFPPSDEQLKSGTASVVCLLNNFYPREAKVQWKVDNALQSGNSQESVTEQDSKDSTYSLSSTLTLSKADYEKHKVYACEVTHQGLSSPVTKSFNRGEC
heavy: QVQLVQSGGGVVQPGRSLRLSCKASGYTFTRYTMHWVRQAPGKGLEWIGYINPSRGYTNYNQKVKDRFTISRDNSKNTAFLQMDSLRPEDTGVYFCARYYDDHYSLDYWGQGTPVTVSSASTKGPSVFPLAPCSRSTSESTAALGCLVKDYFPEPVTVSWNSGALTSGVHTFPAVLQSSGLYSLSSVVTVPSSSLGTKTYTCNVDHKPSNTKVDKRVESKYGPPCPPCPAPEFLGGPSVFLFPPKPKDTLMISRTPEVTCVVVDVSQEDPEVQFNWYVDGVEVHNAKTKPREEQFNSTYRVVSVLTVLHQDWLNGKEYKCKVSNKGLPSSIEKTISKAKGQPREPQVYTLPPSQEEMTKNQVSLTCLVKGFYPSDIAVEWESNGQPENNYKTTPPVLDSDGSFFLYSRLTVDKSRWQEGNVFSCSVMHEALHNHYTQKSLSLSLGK
notes: also called anti-CD3 SAFEbody
With B5 the “EC50 (read off the curve)” value [2] was ~70 nM.

B6: TY25715 (bispecific antibody, human IgG1, kappa, N297A)
light: QIVLSQSPAILSASPGEKVTMTCRASSSVSYIHWFQQKPGKSPKPWIYATSNLASGVPVRFSGSGSGTSYSLTISRVEAEDAATYYCQQWTSNPPTFGGGTKVEIKRTVAAPSVFIFPPSDEQLKSGTASVVCLLNNFYPREAKVQWKVDNALQSGNSQESVTEQDSKDSTYSLSSTLTLSKADYEKHKVYACEVTHQGLSSPVTKSFNRGEC
heavy: EVQLVQSGAEVKKPGSSVKVSCKASGYTFTSYNMHWVRQAPGKGLEWIGAIYPGSGDTSYNQKFKGRVTITADKSTSTAYMELSSLRSEDTAVYYCARSTYYGGDWYFNVWGQGTLVTVSSASTKGPSVFPLAPSSKSTSGGTAALGCLVKDYFPEPVTVSWNSGALTSGVHTFPAVLQSSGLYSLSSVVTVPSSSLGTQTYICNVNHKPSNTKVDKKVEPKSCDKTHTCPPCPAPELLGGPSVFLFPPKPKDTLMISRTPEVTCVVVDVSHEDPEVKFNWYVDGVEVHNAKTKPREEQYASTYRVVSVLTVLHQDWLNGKEYKCKVSNKALPAPIEKTISKAKGQPREPQVYTLPPSRKKLTKNQVKLTCLVKGFYPSDIAVEWESNGQPENNYKTTPPVLDCDGSFFLYSKLTVDKSRWQQGNVFSCSVMHEALHNHYTQKSLSLSPGK
chain: EAVVTQEPSLTVSPGGTVTLTCGSSTGAVTTSNYPNWVQQKPGQAPRGLIGGTNKRAPGTPARFSGSLLGGKAALTLSGAQPEDEAEYYCALWYSDLWVFGGGTKLTVLGGGGSGGGGSGGGGSGGGGSEVQLVESGGGLVQPGGSLRLSCAASGFTFSTYAINWVRQAPGKGLEWVSRIRSKYNNYATYYAESVKDRFTISRDDSKNTLYLQINSLRAEDTAVYYCVRHGNFGTSYVSWFAYWGQGTLVTVSSEPKSSDKTHTCPPCPAPELLGGPSVFLFPPKPKDTLMISRTPEVTCVVVDVSHEDPEVKFNWYVDGVEVHNAKTKPREEQYASTYRVVSVLTVLHQDWLNGKEYKCKVSNKALPAPIEKTISKAKGQPREPQVYTDPPSRDELTKNQVSLTCLVDGFYPSDIAVEWESNGQPENCYKTTPPVLDSDGSFFLYSKLTVDKSRWQQGNVFSCSVMHEALHNHYTQDSLSLSPGK
notes: also called parental CD20xCD3 bispecific antibody of TY25716
In the case of B6, the EC50 [3] is reported as 28.8 nM, the “max MFI” value [3] is reported as 2260 MFI and the EC50 [4] is reported as 20.7 nM. For the same binder, the “max MFI” value [4] was 1120 MFI.

B7: TY25716 (bispecific antibody, human IgG1, kappa, N297A)
light: B6 light
heavy: B6 heavy
chain: EVGSYPYDDPDCPSHESDCDQGGGPLGLAGGSEAVVTQEPSLTVSPGGTVTLTCGSSTGAVTTSNYPNWVQQKPGQAPRGLIGGTNKRAPGTPARFSGSLLGGKAALTLSGAQPEDEAEYYCALWYSDLWVFGGGTKLTVLGGGGSGGGGSGGGGSGGGGSEVQLVESGGGLVQPGGSLRLSCAASGFTFSTYAINWVRQAPGKGLEWVSRIRSKYNNYATYYAESVKDRFTISRDDSKNTLYLQINSLRAEDTAVYYCVRHGNFGTSYVSWFAYWGQGTLVTVSSEPKSSDKTHTCPPCPAPELLGGPSVFLFPPKPKDTLMISRTPEVTCVVVDVSHEDPEVKFNWYVDGVEVHNAKTKPREEQYASTYRVVSVLTVLHQDWLNGKEYKCKVSNKALPAPIEKTISKAKGQPREPQVYTDPPSRDELTKNQVSLTCLVDGFYPSDIAVEWESNGQPENCYKTTPPVLDSDGSFFLYSKLTVDKSRWQQGNVFSCSVMHEALHNHYTQDSLSLSPGK
For B7, the EC50 [5] was 28 nM, the “Max MFI” value [5] was 23500 MFI and the EC50 [6] was 220 nM. The “Max MFI” value [6] was 967000 MFI, the EC50 [7] was 14.5 nM and the “max MFI” value [7] was 50000 MFI. For the same binder, the EC50 [8] was 162 nM, the “Max MFI” value [8] was 647000 MFI and the EC50 [9] was 13.5 nM. The “max MFI” value [9] was 28100 MFI, the EC50 [10] was 14.6 nM and the “Max MFI” value [10] was 2.48e+06 MFI. For the same binder, the EC50 [11] was 37.2 nM and the “Max MFI” value [11] was 5280 MFI.

B8: TY25524 (bispecific antibody, human IgG1, kappa, N297A)
light: not shown
heavy: not shown
chain: B6 chain with P35A, N54K, K55F, T60I, L97H, S178G, D197G, V228A
Work on B8 yielded an EC50 [12] of 260 nM.
